The record followed here is US20230313199A1, “TARGET FOR MODULATING BODY MASS” (Massachusetts Institute of Technology, priority 2020, published 2023).

Broadly, the Kd is a measure of binding affinity in units of concentration.

Sequences and labels used below:
B3: endogenous MFSD7C of mouse bone marrow-derived macrophages (other, UniProt Q91X85 1-551, looked up)
chain: MVNESLNQEESNDRPAPESEFQMDTSYSTQPSGSIHPSVSGHPSVSGHPSVSGHPSVSIHPSVSIDPSVSVRPSSSALPSTLAQPSGLTHHSSLVREDSVIKVSKRRWVVVLVFSCYSLCNAFQWIQYGSINNIFMNFYGVSAFAIDWLSMCYMLTYIPLLLPVAWMLEKFGLRTIAITGSALNCLGAWVKLGSLEPHLFPVTMVGQVICSVAQVFILGMPSRIASVWFGADEVSTACSVAVFGNQLGIAIGFLVPPVLVPNIKDPEKLAYHISIMFYIIGGVATFLFILVIIVFKEKPKHPPSRAQSLSYALATTDASYLSSIVRLFKNLNFVLLVITYGLNAGAFYALSTLLNRMVILHFPGEEVNAGRIGLTIVIAGMFGAMISGIWLDKSKTYKETTLVVYIMTLVGMVVYTFTLNLNHLWVVFITAGTLGFFMTGYLPLGFEFAVELTYPESEGVSSGLLNVSAQVFGIVFTISQGQIIDNHGTMFGNIFLCVFLALGSALTAFIKSDLRRQRANKDAPETKVQEEEEEEEGSNTSKVPVVSEAHL

Experiment [1] has as its system SERCA2b. The experiment in a line: SERCA2b level and ubiquitination by pull-down and Western blotting in transfected 293T cells. Type of experiment: cell-based, murine. As for the experimental part: (§1) FIGS. 5A-5F show MFSD7C and heme regulate thermogenesis through SERCA2b in THP-1 cells. […] 30 hours later, MG132 was added into half of the cells and the other half was not treated. Another 35 hours later, some cells were treated with 40 μM heme for 1 hour before lysis. Cell lysates were immunoprecipitated with anti-FLAG antibody, and eluted, followed by anti-HA immunoprecipitation and elution. Total cell lysate and elute were subjected to Western blotting and probed with anti-SERCA2b or anti-MFSD7C antibodies. Shown are representative data from one of three experiments. […] 24 hrs later, cells were either not treated or treated with 10 μM MG132 for either 6 or 12 hours. The cells were lysed and subjected to FLAG pull-down and blotted with anti-MFSD7C, anti-SERCA2b and anti-ubiquitin antibodies. Shown are representative data from one of three experiments. […] Parental THP-1 cells were either not treated or treated with heme before lysis. Shown are representative data from one of four experiments. […] Shown are representative data from one of two experiments. […] Cells were washed and treated with 40 μM heme for one hour before flow cytometry. Representative FPT histograms from one of three experiments are shown. […] Shown are representative FPT histograms from one of three experiments. […]
On the technique in general: Immunoblotting shows a protein as a band on a membrane.

The target of experiment [2] is T1, MFSD7C and SERCA2b (Mus musculus, UniProt Q91X85).
T1 construct: expressed in transfected cells; called 293T
The experiment in a line: Co-IP of MFSD7C and SERCA2b in transfected 293T cells. The class given is cell-based, murine. The note with it: 293T cells in the presence of MG132; none co-precipitated without. The method, then: as §1

The target of experiment [3] is T2, HP motif peptide (Homo sapiens, UniProt Q9UPI3).
T2 construct: a synthetic 14-amino acid HP motif peptide; made in house; host or cells: chemical solid-phase synthesis (Koch Institute Biopolymers & Proteomics Core)
In words: Isothermal titration calorimetry of HP motif peptide binding to heme (one-site model). Conditions: synthetic 14-amino acid HP motif peptide, one-site binding model.

The target in experiment [4] is T3, NTD of human MFSD7C (Homo sapiens, UniProt Q9UPI3).
T3 construct: Plasmid harboring GST-His-tag-SUMO-NTD (amino acids 1-84); GST-His-tag-SUMO (N, cleaved yes); made in house; host or cells: Escherichia coli Lemo21(DE3)
T3 sequence (Q9UPI3 1-84): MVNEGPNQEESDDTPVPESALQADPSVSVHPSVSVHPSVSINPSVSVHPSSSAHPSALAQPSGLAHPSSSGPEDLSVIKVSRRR
In words: Isothermal titration calorimetry of NTD binding to heme. The note with it: ITC, 25° C., 3-site sequential binding model. (In general: In ITC the heat of successive injections is recorded.)

Experiment [5] concerns the target endogenous human SERCA2b of THP-1 cells (human) (UniProt P16615). The experiment in a line: cell-based or functional assay.
For experiment [6], the target named is T4, HA-tagged murine MFSD7C (mouse, UniProt Q91X85 1-551).
T4 construct: Expressed by transfection in 293FT / HEK 293T cells; also called HA-MFSD7C; pCMV6-AN-3HA-MFSD7C; not shown: N-terminal HA tag from vector pCMV6-AN-3HA
T4 sequence (looked up): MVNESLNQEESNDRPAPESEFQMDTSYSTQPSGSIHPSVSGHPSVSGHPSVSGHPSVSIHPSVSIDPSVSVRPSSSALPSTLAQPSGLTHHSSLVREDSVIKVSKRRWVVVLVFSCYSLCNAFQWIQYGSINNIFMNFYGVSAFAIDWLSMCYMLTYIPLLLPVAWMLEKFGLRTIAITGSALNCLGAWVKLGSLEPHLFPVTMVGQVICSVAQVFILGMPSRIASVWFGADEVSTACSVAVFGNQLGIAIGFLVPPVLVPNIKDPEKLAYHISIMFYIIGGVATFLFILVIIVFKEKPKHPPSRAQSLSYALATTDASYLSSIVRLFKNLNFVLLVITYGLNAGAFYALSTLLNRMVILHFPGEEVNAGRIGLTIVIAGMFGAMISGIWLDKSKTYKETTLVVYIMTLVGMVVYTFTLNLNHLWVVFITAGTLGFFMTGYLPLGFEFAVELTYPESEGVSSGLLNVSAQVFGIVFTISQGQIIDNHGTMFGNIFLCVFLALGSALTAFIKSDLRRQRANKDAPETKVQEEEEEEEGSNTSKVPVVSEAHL
In words: co-IP and Western blot, co-transfected 293FT cells, without heme (less or very little with 10 or 40 µM heme). The method, then: (§2) Co-transfection and immunoprecipitation. For co-IP, HA-tagged MFSD7C was co-transfected with FLAG-tagged HMOX1 (Origene Catalog No. MR203944), CYC1, COX4I1, NDUFA4, ATP5h, ATP5c1 into 293FT cells using TransIT®-LT1 Transfection Reagent (Mirus). Thirty-six hours after transfection, the cells were lysed using cold Lysis Buffer containing 20 mM Tris-HCl (pH 7.4), 150 mM NaCl, 0.1% NP-40, 10% glycerol, proteinase inhibitor (Sigma Catalog No. 4693132001), and phosphatase inhibitors (Sigma Catalog No. 4906845001). The clear supernatants from the lysate were incubated with M2-magnetic beads conjugated with anti-FLAG antibody (Sigma Catalog No. M8823) for 2 hours at 4° C. Then the beads were washed twice and eluted by the 3× FLAG peptides (Sigma Catalog No. F4799).
To determine the effect of heme on MFSD7C interactions with ETC components, HMOX1 or SERCA2b, 293FT cells were transiently transfected with HA-tagged murine MFSD7C and FLAG-tagged murine CYC1, NDUFA4, COX4i1, ATP5h, ATP5c1, HMOX1 or SERCA2b. 35 hrs later, co-transfected cells were incubated with DMSO (vehicle) or 10 μM or 40 μM of heme for one hour before lysis. Cell lysates were precipitated with anti-HA antibody, eluted with HA peptide, further precipitated with anti-FLAG antibody, eluted with FLAG peptide, and then subjected to Western blotting with anti-HA and anti-FLAG antibodies. Cells were treated with proteasome inhibitor MG132 for co-IP between MFSD7C and SERCA2b.

In experiment [7] the target is T5, endogenous mouse SERCA2b (ATP2a2) (mouse, UniProt O55143 1-1044).
T5 construct: also called endogenous SERCA2b
T5 sequence (O55143 whole entry): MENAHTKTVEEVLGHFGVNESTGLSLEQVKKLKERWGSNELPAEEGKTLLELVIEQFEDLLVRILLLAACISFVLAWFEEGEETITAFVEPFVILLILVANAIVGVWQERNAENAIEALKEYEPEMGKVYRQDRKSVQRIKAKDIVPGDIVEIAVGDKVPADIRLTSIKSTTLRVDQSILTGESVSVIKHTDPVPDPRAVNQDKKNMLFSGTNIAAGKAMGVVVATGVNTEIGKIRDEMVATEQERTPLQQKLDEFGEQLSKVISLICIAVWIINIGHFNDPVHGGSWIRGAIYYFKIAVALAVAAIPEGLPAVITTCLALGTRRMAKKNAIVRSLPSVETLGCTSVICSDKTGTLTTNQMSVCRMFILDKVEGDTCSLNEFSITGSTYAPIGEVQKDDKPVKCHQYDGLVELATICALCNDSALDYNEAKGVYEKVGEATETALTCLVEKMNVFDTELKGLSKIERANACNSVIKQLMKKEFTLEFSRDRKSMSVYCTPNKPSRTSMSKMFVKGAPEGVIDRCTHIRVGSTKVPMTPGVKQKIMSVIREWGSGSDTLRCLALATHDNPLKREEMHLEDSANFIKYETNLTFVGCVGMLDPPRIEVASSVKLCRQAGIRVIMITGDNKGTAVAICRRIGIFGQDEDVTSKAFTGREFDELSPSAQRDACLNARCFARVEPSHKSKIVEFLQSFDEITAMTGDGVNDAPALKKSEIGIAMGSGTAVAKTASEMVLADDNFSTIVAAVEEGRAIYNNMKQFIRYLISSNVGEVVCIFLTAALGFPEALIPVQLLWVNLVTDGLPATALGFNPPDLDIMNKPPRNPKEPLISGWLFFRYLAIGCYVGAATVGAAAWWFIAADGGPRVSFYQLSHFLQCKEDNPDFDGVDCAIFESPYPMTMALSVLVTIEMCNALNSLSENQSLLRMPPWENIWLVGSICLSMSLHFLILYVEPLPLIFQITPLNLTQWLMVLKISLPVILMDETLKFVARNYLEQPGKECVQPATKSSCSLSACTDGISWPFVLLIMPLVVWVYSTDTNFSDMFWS
The experiment in a line: co-IP of endogenous proteins, mouse bone marrow-derived macrophages.

In experiment [8] the target is B3. The experiment in a line: co-IP of endogenous proteins, mouse bone marrow-derived macrophage lysate.
The target of experiment [9] is T4, HA-tagged murine MFSD7C. The experiment in a line: co-IP and Western blot, co-transfected 293FT cells, with or without 10 or 40 µM heme. As for the experimental part: as §2
To determine the effect of heme on MFSD7C interactions with ETC components, HMOX1 or SERCA2b, 293FT cells were transiently transfected with HA-tagged murine MFSD7C and FLAG-tagged murine CYC1, NDUFA4, COX4i1, ATP5h, ATP5c1, HMOX1 or SERCA2b. 35 hrs later, co-transfected cells were incubated with DMSO (vehicle) or 10 μM or 40 μM of heme for one hour before lysis. Cell lysates were precipitated with anti-HA antibody, eluted with HA peptide, further precipitated with anti-FLAG antibody, eluted with FLAG peptide, and then subjected to Western blotting with anti-HA and anti-FLAG antibodies. […]

Read-outs that look alike come from different tables or passages of the source. Residues, ends and D or L forms follow the SMILES beside them. *: point of attachment. Cbz = O=C(OCc1ccccc1)*

endogenous human SERCA2b of THP-1 cells (human), sequence (P16615 whole entry): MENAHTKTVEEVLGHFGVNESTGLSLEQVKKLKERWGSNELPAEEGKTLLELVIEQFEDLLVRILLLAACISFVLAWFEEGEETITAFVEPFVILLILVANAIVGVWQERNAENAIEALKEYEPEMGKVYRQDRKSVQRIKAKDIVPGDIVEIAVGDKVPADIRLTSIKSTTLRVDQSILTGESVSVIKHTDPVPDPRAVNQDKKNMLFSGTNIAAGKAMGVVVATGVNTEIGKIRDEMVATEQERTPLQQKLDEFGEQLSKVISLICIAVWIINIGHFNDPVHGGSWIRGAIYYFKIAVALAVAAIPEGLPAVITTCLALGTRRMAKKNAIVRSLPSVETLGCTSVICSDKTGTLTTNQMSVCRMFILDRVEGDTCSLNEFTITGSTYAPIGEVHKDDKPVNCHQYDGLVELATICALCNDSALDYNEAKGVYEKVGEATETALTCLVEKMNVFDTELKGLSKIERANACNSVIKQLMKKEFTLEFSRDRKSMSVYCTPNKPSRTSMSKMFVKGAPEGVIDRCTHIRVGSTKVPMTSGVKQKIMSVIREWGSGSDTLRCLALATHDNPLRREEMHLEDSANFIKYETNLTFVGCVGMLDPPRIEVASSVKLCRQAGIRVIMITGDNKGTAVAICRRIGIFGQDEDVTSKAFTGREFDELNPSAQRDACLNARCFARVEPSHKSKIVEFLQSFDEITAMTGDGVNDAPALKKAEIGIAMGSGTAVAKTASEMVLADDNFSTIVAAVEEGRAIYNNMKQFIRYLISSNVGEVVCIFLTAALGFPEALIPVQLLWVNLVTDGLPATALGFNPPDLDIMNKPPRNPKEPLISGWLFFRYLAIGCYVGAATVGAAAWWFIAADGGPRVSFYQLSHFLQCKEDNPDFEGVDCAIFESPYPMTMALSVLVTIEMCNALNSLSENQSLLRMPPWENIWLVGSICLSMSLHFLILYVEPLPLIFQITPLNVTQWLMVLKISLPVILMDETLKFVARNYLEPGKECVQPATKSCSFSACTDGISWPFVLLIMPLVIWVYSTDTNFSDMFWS

`CC(C)C[C@@H](C=O)NC(=O)[C@H](CC(C)C)NC(=O)[C@H](CC(C)C)NC(=O)OCc1ccccc1` [MG132] (Cbz-Leu-Leu-Leu-aldehyde): the “full-length and ubiquitinated SERCA2b precipitated” value in experiment [1] (10 μM MG132 for 6 or 12 hours, longer treatment) was “more full-length and ubiquitinated SERCA2b was precipitated”. The “level of SERCA2b detected” value in [1] (presence vs absence of MG132) is on record as “significantly higher level of SERCA2b was detected”. Also, the “SERCA2b co-precipitated with MFSD7C” value in experiment [2] is “an appreciable level was co-precipitated with MFSD7C”.
`C=CC1=C(C)C2=Cc3c(C=C)c(C)c4[n]3[Fe][n]3c(c(C)c(CCC(=O)O)c3=CC3=NC(=C4)C(C)=C3CCC(=O)O)=CC1=N2` [heme]: the Kd in experiment [3] is about 1000 nM; in [4] (two strong of three heme sites on NTD, read-out: KD, two strong binding sites), about 1000 nM; in experiment [4] (weaker of three heme sites on NTD, read-out: KD, one weaker site) it was about 220000 nM.
In [5], “endogenous human MFSD7C of THP-1 cells (from UniProt Q9UPI3 1-526)” showed a Pearson's correlation coefficient value (co-localization, THP-1 cells after 40 µM heme for 1 hour) of 0.67 and a Pearson's correlation coefficient value (co-localization, confocal microscopy of THP-1 cells) of 0.89.

B1: FLAG-tagged murine NDUFA4 (other, mouse, UniProt Q62425 1-82, looked up)
chain: MLRQILGQAKKHPSLIPLFVFIGAGGTGAALYVMRLALFNPDVSWDRKNNPEPWNKLGPNEQYKFYSVNVDYSKLKKEGPDF
notes: Complex IV component; expressed by transfection; also called pCMV6-AC-DDK-Ndufa4; not shown: C-terminal FLAG (DDK) tag
As to B1, in [6], the binding result is reported as “binds”.

B2: FLAG-tagged murine ATP5c1 (other, mouse, UniProt Q91VR2 26-298, looked up)
chain: ATLKDITRRLKSIKNIQKITKSMKMVAAAKYARAERELKPARVYGTGSLALYEKADIKAPEDKKKHLIIGVSSDRGLCGAIHSSVAKQMKNEVAALTAAGKEVMIVGVGEKIKGILYRTHSDQFLVSFKDVGRKPPTFGDASVIALELLNSGYEFDEGSIIFNQFKSVISYKTEEKPIFSLNTIATAETMSIYDDIDADVLQNYQEYNLANLIYYSLKESTTSEQSARMTAMDNASKNASDMIDKLTLTFNRTRQAVITKELIEIISGAAALD
notes: Complex V component; expressed by transfection; also called pCMV6-AC-DDK-ATP5c1; not shown: C-terminal FLAG (DDK) tag
For the molecule B2, the binding result in [6] is on record as “binds”.
With B3, the binding result in [7] is “binds”.

B4: FLAG-tagged murine CYC1 (other, mouse, UniProt Q9D0M3 85-325, looked up)
chain: SDLELHPPSYPWSHRGLLSSLDHTSIRRGFQVYKQVCSSCHSMDYVAYRHLVGVCYTEEEAKALAEEVEVQDGPNDDGEMFMRPGKLSDYFPKPYPNPEAARAANNGALPPDLSYIVRARHGGEDYVFSLLTGYCEPPTGVSLREGLYFNPYFPGQAIGMAPPIYTEVLEYDDGTPATMSQVAKDVATFLRWASEPEHDHRKRMGLKMLLMMGLLLPLTYAMKRHKWSVLKSRKLAYRPPK
notes: Complex III component; expressed by transfection; also called pCMV6-AC-DDK-Cyc1; not shown: C-terminal FLAG (DDK) tag
As to B4, in experiment [6], the binding result was “binds”.

B5: endogenous HMOX1 of mouse bone marrow-derived macrophages (enzyme, UniProt P14901 1-289, looked up)
chain: MERPQPDSMPQDLSEALKEATKEVHIQAENAEFMKNFQKGQVSREGFKLVMASLYHIYTALEEEIERNKQNPVYAPLYFPEELHRRAALEQDMAFWYGPHWQEIIPCTPATQHYVKRLHEVGRTHPELLVAHAYTRYLGDLSGGQVLKKIAQKAMALPSSGEGLAFFTFPNIDSPTKFKQLYRARMNTLEMTPEVKHRVTEEAKTAFLLNIELFEELQVMLTEEHKDQSPSQMASLRQRPASLVQDTAPAETPRGKPQISTSSSQTPLLQWVLTLSFLLATVAVGIYAM
Regarding B5, the binding result in [8] is “binds”.

B6: FLAG-tagged murine HMOX1 (heme oxygenase-1) (enzyme, mouse, UniProt P14901 1-289, looked up)
chain: MERPQPDSMPQDLSEALKEATKEVHIQAENAEFMKNFQKGQVSREGFKLVMASLYHIYTALEEEIERNKQNPVYAPLYFPEELHRRAALEQDMAFWYGPHWQEIIPCTPATQHYVKRLHEVGRTHPELLVAHAYTRYLGDLSGGQVLKKIAQKAMALPSSGEGLAFFTFPNIDSPTKFKQLYRARMNTLEMTPEVKHRVTEEAKTAFLLNIELFEELQVMLTEEHKDQSPSQMASLRQRPASLVQDTAPAETPRGKPQISTSSSQTPLLQWVLTLSFLLATVAVGIYAM
notes: Expressed by transfection; also called pCMV6-AC-DDK-HMOX1; not shown: C-terminal FLAG (DDK) tag
On to B6, for which the binding result in experiment [9] is given as “binds”.
